# Laboratory results reported in patent US20220229068A1, “DETECTION OF PROTEIN TO PROTEIN INTERACTIONS” (THE GOVERNING COUNCIL OF THE UNIVERSITY OF TORONTO, priority 2019, published 2022).
# T1: DRAP1 (prey, CIC format) (human) (UniProt Q14919)
# T1 sequence (looked up): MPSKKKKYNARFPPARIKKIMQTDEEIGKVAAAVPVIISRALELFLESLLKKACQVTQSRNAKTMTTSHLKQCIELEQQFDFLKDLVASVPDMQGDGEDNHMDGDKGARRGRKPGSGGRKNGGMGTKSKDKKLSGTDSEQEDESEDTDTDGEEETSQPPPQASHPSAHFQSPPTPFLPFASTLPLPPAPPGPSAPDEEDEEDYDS
# T2: NTF4 (prey, CIC format) (human) (UniProt P34130)
# T2 sequence (looked up): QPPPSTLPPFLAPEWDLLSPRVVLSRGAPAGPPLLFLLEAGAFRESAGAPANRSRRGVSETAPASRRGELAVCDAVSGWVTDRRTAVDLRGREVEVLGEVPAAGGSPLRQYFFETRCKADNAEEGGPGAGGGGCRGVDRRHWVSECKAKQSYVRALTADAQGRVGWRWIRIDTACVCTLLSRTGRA
# T3: DCP1A (prey, CIC format) (human) (UniProt Q9NPI6)
# T3 sequence (looked up): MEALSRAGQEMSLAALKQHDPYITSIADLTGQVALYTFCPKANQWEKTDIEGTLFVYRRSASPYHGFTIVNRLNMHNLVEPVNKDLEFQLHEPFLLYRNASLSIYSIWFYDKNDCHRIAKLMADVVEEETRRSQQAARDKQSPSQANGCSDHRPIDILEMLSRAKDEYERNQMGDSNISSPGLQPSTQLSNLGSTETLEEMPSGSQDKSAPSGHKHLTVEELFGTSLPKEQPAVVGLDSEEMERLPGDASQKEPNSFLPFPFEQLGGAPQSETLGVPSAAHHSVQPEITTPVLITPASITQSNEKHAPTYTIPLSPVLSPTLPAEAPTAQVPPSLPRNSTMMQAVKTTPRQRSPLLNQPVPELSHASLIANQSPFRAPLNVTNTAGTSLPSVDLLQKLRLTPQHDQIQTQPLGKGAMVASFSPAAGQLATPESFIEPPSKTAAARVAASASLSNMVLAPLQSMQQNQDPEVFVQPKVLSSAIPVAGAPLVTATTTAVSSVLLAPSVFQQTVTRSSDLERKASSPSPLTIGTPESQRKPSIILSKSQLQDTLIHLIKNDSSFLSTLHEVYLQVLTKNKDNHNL
# T4: PTPN11 (prey, CIC format) (human) (UniProt Q06124)
# T4 sequence (looked up): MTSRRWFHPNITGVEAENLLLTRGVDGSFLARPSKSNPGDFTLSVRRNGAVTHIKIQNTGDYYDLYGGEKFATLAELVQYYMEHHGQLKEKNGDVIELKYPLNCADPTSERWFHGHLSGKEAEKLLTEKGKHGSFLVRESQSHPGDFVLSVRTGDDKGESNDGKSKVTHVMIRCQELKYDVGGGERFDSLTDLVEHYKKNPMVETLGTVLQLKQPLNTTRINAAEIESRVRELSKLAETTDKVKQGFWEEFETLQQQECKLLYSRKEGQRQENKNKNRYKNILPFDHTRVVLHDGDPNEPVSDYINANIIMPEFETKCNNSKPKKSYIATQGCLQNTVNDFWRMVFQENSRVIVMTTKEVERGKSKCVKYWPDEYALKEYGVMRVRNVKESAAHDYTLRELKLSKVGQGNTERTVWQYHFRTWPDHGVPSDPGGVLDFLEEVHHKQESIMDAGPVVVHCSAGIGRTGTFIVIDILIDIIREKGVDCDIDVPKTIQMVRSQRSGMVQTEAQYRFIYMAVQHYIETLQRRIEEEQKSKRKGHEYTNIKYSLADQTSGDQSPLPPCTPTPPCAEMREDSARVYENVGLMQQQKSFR
# T5: BATF (prey, CIC format) (human) (UniProt Q16520)
# T5 sequence (looked up): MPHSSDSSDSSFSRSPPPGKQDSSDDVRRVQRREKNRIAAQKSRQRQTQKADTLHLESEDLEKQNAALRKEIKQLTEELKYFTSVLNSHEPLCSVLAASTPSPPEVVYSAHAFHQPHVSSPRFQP
# T6: PDPK1 (prey, CIC format) (human) (UniProt O15530)
# T6 sequence (looked up): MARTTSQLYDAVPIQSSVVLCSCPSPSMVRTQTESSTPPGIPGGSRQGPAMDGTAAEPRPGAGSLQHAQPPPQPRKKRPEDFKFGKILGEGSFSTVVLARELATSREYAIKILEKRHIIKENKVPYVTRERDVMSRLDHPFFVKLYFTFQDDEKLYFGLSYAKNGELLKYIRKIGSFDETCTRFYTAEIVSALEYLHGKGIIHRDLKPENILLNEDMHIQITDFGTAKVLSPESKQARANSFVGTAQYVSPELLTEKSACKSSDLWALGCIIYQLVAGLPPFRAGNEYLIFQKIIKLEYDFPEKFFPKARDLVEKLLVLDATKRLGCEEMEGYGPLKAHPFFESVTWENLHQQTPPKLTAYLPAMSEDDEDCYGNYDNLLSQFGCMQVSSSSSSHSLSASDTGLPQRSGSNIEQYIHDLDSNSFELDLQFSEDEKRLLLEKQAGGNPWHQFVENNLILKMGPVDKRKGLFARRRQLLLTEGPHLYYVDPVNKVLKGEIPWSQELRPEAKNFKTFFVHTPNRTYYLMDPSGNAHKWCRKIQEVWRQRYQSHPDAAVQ
# T7: FRS2 (prey, CIC format) (human) (UniProt Q8WU20)
# T7 sequence (looked up): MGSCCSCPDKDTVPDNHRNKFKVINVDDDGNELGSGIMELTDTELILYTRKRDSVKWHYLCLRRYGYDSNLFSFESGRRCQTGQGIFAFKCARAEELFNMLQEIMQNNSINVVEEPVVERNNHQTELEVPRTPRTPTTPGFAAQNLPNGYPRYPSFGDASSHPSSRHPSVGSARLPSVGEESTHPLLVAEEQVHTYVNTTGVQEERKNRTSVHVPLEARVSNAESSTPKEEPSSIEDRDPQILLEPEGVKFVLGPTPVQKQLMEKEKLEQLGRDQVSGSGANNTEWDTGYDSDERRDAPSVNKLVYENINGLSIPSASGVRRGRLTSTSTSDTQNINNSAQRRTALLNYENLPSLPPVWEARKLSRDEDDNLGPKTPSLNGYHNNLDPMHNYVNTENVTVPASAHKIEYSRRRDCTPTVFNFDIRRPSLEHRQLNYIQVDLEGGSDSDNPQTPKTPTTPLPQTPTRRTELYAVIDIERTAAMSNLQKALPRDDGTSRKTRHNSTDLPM
# T8: NCBP2 (prey, CIC format) (human) (UniProt P52298)
# T8 sequence (looked up): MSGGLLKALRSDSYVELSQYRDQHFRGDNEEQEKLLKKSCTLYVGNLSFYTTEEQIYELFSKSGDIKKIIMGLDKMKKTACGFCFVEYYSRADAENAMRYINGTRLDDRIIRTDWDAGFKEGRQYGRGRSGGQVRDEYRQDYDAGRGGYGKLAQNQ
# T9: S100B (prey, CIC format) (human) (UniProt P04271)
# T9 sequence (looked up): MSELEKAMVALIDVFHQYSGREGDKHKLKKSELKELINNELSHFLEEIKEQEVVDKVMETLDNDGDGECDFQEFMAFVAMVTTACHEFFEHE
# Key:
# Test in all cases: SIMPL ELISA, bait-IN/prey-CIC
# [1] = biological target: T1, DRAP1 (prey, CIC format) (human)
# [2] = biological target: T2, NTF4 (prey, CIC format) (human)
# [3] = biological target: T3, DCP1A (prey, CIC format) (human)
# [4] = biological target: BCL2L1 (prey, CIC format) (human) (UniProt Q07817)
# Chain of BCL2L1 (prey, CIC format) (human) (Q07817 whole entry): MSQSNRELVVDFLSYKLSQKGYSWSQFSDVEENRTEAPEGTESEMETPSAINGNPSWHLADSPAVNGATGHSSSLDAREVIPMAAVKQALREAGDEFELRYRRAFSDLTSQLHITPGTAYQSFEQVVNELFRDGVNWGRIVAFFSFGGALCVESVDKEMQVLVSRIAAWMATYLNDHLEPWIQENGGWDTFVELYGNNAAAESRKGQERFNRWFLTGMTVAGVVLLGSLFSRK
# [5] = biological target: DDIT3 (prey, CIC format) (human) (UniProt P35638)
# Chain of DDIT3 (prey, CIC format) (human) (P35638 whole entry): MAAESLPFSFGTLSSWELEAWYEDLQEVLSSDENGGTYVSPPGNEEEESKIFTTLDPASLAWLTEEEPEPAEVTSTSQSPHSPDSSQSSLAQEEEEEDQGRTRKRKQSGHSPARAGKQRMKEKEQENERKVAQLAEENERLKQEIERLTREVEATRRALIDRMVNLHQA
# [6] = biological target: LMNB1 (prey, CIC format) (human) (UniProt P20700)
# Chain of LMNB1 (prey, CIC format) (human) (P20700 whole entry): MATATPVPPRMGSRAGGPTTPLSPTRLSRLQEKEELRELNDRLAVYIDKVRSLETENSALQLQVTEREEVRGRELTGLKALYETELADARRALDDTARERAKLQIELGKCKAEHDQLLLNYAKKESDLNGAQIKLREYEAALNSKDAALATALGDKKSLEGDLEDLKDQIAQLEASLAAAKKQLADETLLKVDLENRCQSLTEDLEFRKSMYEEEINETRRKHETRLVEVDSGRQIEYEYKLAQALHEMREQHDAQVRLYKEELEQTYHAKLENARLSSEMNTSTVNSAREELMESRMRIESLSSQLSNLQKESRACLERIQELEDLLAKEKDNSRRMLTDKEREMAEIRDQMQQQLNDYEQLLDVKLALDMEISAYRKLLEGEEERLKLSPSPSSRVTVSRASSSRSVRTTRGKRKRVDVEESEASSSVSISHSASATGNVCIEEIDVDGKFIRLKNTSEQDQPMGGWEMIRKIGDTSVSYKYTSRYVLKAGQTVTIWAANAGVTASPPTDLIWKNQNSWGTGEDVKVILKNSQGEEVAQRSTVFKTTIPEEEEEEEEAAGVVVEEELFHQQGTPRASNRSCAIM
# [7] = biological target: T4, PTPN11 (prey, CIC format) (human)
# [8] = biological target: T5, BATF (prey, CIC format) (human)
# [9] = biological target: T6, PDPK1 (prey, CIC format) (human)
# [10] = biological target: PCNA (prey, CIC format) (human) (UniProt P12004)
# Chain of PCNA (prey, CIC format) (human) (P12004 whole entry): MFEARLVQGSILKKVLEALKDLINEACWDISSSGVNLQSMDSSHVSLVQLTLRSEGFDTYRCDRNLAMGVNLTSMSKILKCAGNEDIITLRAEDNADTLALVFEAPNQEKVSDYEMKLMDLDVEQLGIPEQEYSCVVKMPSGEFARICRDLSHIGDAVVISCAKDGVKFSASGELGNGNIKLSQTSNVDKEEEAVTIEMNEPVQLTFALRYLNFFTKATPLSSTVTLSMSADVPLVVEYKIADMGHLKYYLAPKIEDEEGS
# [11] = biological target: T7, FRS2 (prey, CIC format) (human)
# [12] = biological target: T8, NCBP2 (prey, CIC format) (human)
# [13] = biological target: T9, S100B (prey, CIC format) (human)
# [14] = substrate: FOS (prey, CIC format) (human) (UniProt P01100)
# Chain of FOS (prey, CIC format) (human) (P01100 whole entry): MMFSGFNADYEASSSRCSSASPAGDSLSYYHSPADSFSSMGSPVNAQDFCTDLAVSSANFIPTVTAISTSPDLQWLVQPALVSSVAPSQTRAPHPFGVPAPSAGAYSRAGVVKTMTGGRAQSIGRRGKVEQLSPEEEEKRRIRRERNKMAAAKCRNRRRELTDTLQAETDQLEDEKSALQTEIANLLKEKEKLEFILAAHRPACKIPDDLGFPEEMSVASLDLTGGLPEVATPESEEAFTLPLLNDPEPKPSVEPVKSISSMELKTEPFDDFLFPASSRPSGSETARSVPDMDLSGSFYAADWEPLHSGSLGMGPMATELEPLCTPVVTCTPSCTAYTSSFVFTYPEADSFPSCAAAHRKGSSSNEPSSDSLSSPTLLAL
# [15] = biological target: ARHGAP1 (prey, CIC format) (human) (UniProt Q07960)
# Chain of ARHGAP1 (prey, CIC format) (human) (Q07960 whole entry): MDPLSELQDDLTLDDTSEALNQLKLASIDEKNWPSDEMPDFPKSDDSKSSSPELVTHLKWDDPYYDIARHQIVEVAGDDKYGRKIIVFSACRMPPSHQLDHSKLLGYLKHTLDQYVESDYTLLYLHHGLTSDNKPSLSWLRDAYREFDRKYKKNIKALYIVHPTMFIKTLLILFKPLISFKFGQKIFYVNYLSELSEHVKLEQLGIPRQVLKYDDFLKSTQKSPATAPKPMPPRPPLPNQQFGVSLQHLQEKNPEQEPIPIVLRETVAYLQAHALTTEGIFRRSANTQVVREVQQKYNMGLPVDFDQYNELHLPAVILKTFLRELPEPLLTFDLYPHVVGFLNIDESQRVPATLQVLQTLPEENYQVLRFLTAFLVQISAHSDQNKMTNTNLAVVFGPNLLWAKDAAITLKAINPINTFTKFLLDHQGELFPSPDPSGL
# [16] = biological target: CASP9 (prey, CIC format) (human) (UniProt P55211)
# Chain of CASP9 (prey, CIC format) (human) (P55211 whole entry): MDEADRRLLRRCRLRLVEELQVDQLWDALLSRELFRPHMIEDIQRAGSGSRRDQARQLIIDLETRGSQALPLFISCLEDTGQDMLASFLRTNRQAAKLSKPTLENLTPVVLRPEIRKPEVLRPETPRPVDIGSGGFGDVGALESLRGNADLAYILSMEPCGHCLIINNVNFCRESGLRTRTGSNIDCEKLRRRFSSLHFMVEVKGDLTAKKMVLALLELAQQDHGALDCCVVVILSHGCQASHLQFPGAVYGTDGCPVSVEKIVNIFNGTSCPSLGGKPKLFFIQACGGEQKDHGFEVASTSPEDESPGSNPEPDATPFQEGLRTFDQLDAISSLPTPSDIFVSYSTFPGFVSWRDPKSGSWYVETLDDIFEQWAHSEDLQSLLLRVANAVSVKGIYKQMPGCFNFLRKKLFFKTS
binder,measurement,setting,value
"DR1 (bait, IN format) (protein, human, UniProt Q01658 1-176, looked up) MASSSGNDDDLTIPRAAINKMIKETLPNVRVANDARELVVNCCTEFIHLISSEANEICNKSEKKTISPEHVIQALESLGFGSYISEVKEVLQECKTVALKRRKASSRLENLGIPEEELLRQQQELFAKARQQQAELAQQEWLQMQQAAQQAQLAAASASASNQAGSSQDEEDDDDI",PLU mean,[1],3.97
same,PLU mean,[2],0.0529
"BAD (bait, IN format) (protein, human, UniProt Q92934 1-168, looked up) MFQIPEFEPSEQEDSSSAERGLGPSPAGDGPSGSGKHHRQAPGLLWDASHQQEQPTSSSHHGGAGAVEIRSRHSSYPAGTEDDEGMGEEPSPFRGRSRSAPPNLWAAQRYGRELRRMSDEFVDSFKKGLPRPKSAGTATQMRQSSSWTRVFQSWWDRNLGRGSSAPSQ",PLU mean,[3],0.499
same,PLU mean,[4],1.85
"ATF3 (bait, IN format) (protein, human, UniProt P18847 1-181, looked up) MMLQHPGQVSASEVSASAIVPCLSPPGSLVFEDFANLTPFVKEELRFAIQNKHLCHRMSSALESVTVSDRPLGVSITKAEVAPEEDERKKRRRERNKIAAAKCRNKKKEKTECLQKESEKLESVNAELKAQIEELKNEKQHLIYMLNLHRPTCIVRAQNGRTPEDERNLFIQQIKEGTLQS",PLU mean,[5],1.64
same,PLU mean,[6],0.134
"JUNB (bait, IN format) (protein, human, UniProt P17275 1-347, looked up) MCTKMEQPFYHDDSYTATGYGRAPGGLSLHDYKLLKPSLAVNLADPYRSLKAPGARGPGPEGGGGGSYFSGQGSDTGASLKLASSELERLIVPNSNGVITTTPTPPGQYFYPRGGGSGGGAGGAGGGVTEEQEGFADGFVKALDDLHKMNHVTPPNVSLGATGGPPAGPGGVYAGPEPPPVYTNLSSYSPASASSGGAGAAVGTGSSYPTTTISYLPHAPPFAGGHPAQLGLGRGASTFKEEPQTVPEARSRDATPPVSPINMEDQERIKVERKRLRNRLAATKCRKRKLERIARLEDKVKTLKAENAGLSSTAGLLREQVAQLKQKVMTHVSNGCQLLLGVKGHAF",PLU mean,[7],0.345
same,PLU mean,[8],2.04
"GADD45A (bait, IN format) (protein, human, UniProt P24522 1-165, looked up) MTLEEFSAGEQKTERMDKVGDALEEVLSKALSQRTITVGVYEAAKLLNVDPDNVVLCLLAADEDDDRDVALQIHFTLIQAFCCENDINILRVSNPGRLAELLLLETDAGPAASEGAEQPPDLHCVLVTNPHSSQWKDPALSQLICFCRESRYMDQWVPVINLPER",PLU mean,[9],0.265
same,PLU mean,[10],0.0617
same,PLU mean,[11],0.21
"NCBP1 (bait, IN format) (protein, human, UniProt Q09161 1-790, looked up) MSRRRHSDENDGGQPHKRRKTSDANETEDHLESLICKVGEKSACSLESNLEGLAGVLEADLPNYKSKILRLLCTVARLLPEKLTIYTTLVGLLNARNYNFGGEFVEAMIRQLKESLKANNYNEAVYLVRFLSDLVNCHVIAAPSMVAMFENFVSVTQEEDVPQVRRDWYVYAFLSSLPWVGKELYEKKDAEMDRIFANTESYLKRRQKTHVPMLQVWTADKPHPQEEYLDCLWAQIQKLKKDRWQERHILRPYLAFDSILCEALQHNLPPFTPPPHTEDSVYPMPRVIFRMFDYTDDPEGPVMPGSHSVERFVIEENLHCIIKSHWKERKTCAAQLVSYPGKNKIPLNYHIVEVIFAELFQLPAPPHIDVMYTTLLIELCKLQPGSLPQVLAQATEMLYMRLDTMNTTCVDRFINWFSHHLSNFQFRWSWEDWSDCLSQDPESPKPKFVREVLEKCMRLSYHQRILDIVPPTFSALCPANPTCIYKYGDESSNSLPGHSVALCLAVAFKSKATNDEIFSILKDVPNPNQDDDDDEGFSFNPLKIEVFVQTLLHLAAKSFSHSFSALAKFHEVFKTLAESDEGKLHVLRVMFEVWRNHPQMIAVLVDKMIRTQIVDCAAVANWIFSSELSRDFTRLFVWEILHSTIRKMNKHVLKIQKELEEAKEKLARQHKRRSDDDDRSSDRKDGVLEEQIERLQEKVESAQSEQKNLFLVIFQRFIMILTEHLVRCETDGTSVLTPWYKNCIERLQQIFLQHHQIIQQYMVTLENLLFTAELDPHILAVFQQFCALQA",PLU mean,[12],2.15
same,PLU mean,[13],0.217
"CEBPG (bait, IN format) (protein, human, UniProt P53567 1-150, looked up) MSKISQQNSTPGVNGISVIHTQAHASGLQQVPQLVPAGPGGGGKAVAPSKQSKKSSPMDRNSDEYRQRRERNNMAVKKSRLKSKQKAQDTLQRVNQLKEENERLEAKIKLLTKELSVLKDLFLEHAHNLADNVQSISTENTTADGDNAGQ",PLU mean,[14],0.788
same,PLU mean,[15],0.0585
same,PLU mean,[16],0.482
